Test results: paper PMC3857192

Biological target: PAC-1
Assay: flow cytometry on cells
Details: read off a plot
[1] = no treatment (CON), parent: est. 0
[2] = FITC-PAC-1 5 µg/ml, DTT + PT25-2, parent: est. 36
[3] = FITC-PAC-1 5 µg/ml, DTT, parent: est. 13
[4] = FITC-PAC-1 5 µg/ml, mAb PT25-2, parent: est. 26

response (DTT + PT25-2, parent: est. 36) [NNFI]	response (DTT, parent: est. 12) [NNFI]	response (mAb PT25-2, parent: est. 26) [NNFI]	response [1] [NNFI]	response [2] [NNFI]	response [3] [NNFI]	response [4] [NNFI]	response (FITC-PAC-1 5 µg/ml, no treatment (CON), parent: est. 0) [NNFI]	Substance
37	28	34	24					normal integrin αIIbβ3 (from UniProt P08514;P05106) αIIb:F992A; αIIb:F993A
				28	14	9.7		normal integrin αIIbβ3 (from UniProt P08514;P05106) αIIb:K321C; β3:R360C
20	13	9.9	5.5					normal integrin αIIbβ3 (from UniProt P08514;P05106) αIIb:K321C; αIIb:F992A; αIIb:F993A; β3:R360C
38	23	5.5	2.7					normal integrin αIIbβ3 (from UniProt P08514;P05106) αIIb:K321C; αIIb:F992A; αIIb:F993A; β3:E358C
				38	19	6.2	0.7	normal integrin αIIbβ3 (from UniProt P08514;P05106) αIIb:K321C; β3:E358C
